# According to the supplement of paper PMC12042874:
# ± gives the uncertainty stated by the source.
# Test: amyloid nucleation score (Sup35N fusion, yeast selection) (log enrichment); library NNK2; higher = more nucleation; inactive = no reads after selection
# Outline: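 Output and input plasmid inserts were sequenced by Illumina after psi-negative yeast carrying Sup35N fused to peptides of 20 random codons had been induced 24 hours with 100 μM copper sulfate and grown 7 days at 30°C on medium lacking adenine and uracil. The nucleation score is the DiMSum log enrichment of output over input reads, centred on the mode score of non-aggregating sequences. Sequences with under 100 input reads were excluded.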
row,Substance,amyloid nucleation score
1,LTSKAVAYNDLACFMLS,0.613 ± 0.74
2,LTSWDHN,0.131 ± 0.31
3,LTTLKFRFFLIIKRSSAGCC,0.461 ± 0.8
4,LTTWNGCSDEC,-0.557 ± 1.1
5,LTVFTPR,-0.62 ± 0.37
6,LTVMSFTNNLHYLF,-0.552 ± 0.48
7,LTVRS,-0.42 ± 0.76
8,LTVTDG,0.104 ± 0.37
9,LTYAYNISYFNWVYCGYWFC,6.448 ± 0.042
10,LTYLTWFLSMDQGMLNWLHV,0.973 ± 0.35
11,LTYYTNRTQYLML,-0.424 ± 1.1
12,LVACMASDITNNMSRLYHLI,-1.79 ± 1.1
13,LVANSSVHVNSSTSNNRLAV,-0.917 ± 0.56
14,LVDHLGFMRMSMAGSWWVEG,0.42 ± 0.8
15,LVFRLDFDYVRLCPNLANTL,0.192 ± 1
16,LVGFALGSDTLISRY,-0.221 ± 1.1
17,LVGMSANNTVKYSK,0.144 ± 0.36
18,LVHPALVVWKQYWVVRLRDV,6.43 ± 0.044
19,LVIMGVCGWSGL,7.975 ± 0.038
20,LVKVTLRVMISV,0.099 ± 0.2
21,LVLYGFYVTSDLRWSLSWKM,0.766 ± 0.2
22,LVNWFVDYRSDVSHLQTGKV,1.08 ± 0.36
23,LVQLKRCQMSLWMRHYHRDE,5.951 ± 0.055
24,LVRPFWTLRYKTYHRSPVGR,1.59 ± 0.15
25,LVRPSGANPSCWAIINRGEI,10.63 ± 0.079
26,LVSADVCLGLMPSKSLGGRV,1.07 ± 0.54

row,Substance,amyloid nucleation score
1,LVSRSYD,-0.341 ± 0.79
2,LVVIYMTRVGASTKLRVSVL,inactive
3,LVWLKQGGTISMLMTCHLFA,0.477 ± 0.52
4,LVWTD,-0.018 ± 1.1
5,LWAGDLFDRGP,0.709 ± 0.66
6,LWGHLNHQWVCVSVMWVYLS,3.64 ± 0.081
7,LWHFVLWYMWLLIGDVVGVC,-0.459 ± 1.1
8,LWILNNFGTIIFRTSHYKGV,7.4 ± 0.078
9,LWKLYLTVSRNLAVGISGGL,inactive
10,LWLMVCMMYM,2.09 ± 0.15
11,LWLPQFEDCSREHTCEFLAI,0.237 ± 0.56
12,LWSVYYMSVIIFPFGKHPKQ,7.149 ± 0.056
13,LWVARHIRIEFMLTFRIYKA,0.011 ± 1.1
14,LWVFLLAWSAQLYDWSMATR,-0.12 ± 0.79
15,LWVIISCSDYLNWLNRGMNE,5.45 ± 0.056
16,LWYSL,-0.558 ± 0.5
17,LYCILPLRL,inactive
18,LYDYYQICINGGRVFSDFPC,-0.474 ± 0.79
19,LYFDR,-0.417 ± 1.1
20,LYLLM,-0.358 ± 1
21,LYLTWCKTLSDNLAL,-1.15 ± 0.76
22,LYLVVYIVASGSYACVRRST,0.546 ± 0.4
23,LYMVSPYRAKIRSQAFRLVT,-0.388 ± 0.33
24,LYNRRPFPYGYGTGLCPQRI,-0.047 ± 0.79
25,LYNYSSFLNTVGVGYEIFMR,-0.105 ± 1.1
26,LYQRNRLWGRKAWNTLWFSL,-0.506 ± 0.42

row,Substance,amyloid nucleation score
1,LYRMYPWVLVGCELFRMVCR,0.108 ± 0.38
2,LYRVLNTVHVSHLQTIRP,-0.064 ± 1.1
3,LYTQESYSDSFVNSLRCSKV,-0.064 ± 1.1
4,LYVFLLCNITLTSPLFNLLF,3.92 ± 0.1
5,LYVQLQMEVVGPGVRLTGSL,3.19 ± 0.077
6,LYWFMD,-1.16 ± 1.1
7,LYYAQSANRRLSGAWRFLF,-0.281 ± 0.79
8,LYYASGRIRFCLHWHLIARV,4.894 ± 0.041
9,LYYFGTGAICMLLNWICPGC,inactive
10,MACFECFTGISACNLNMRG,8.574 ± 0.026
11,MASITDDRADLHH,inactive
12,MASSFQFSDTGSELTSREAR,-0.237 ± 0.79
13,MCEFLIYWIYNFSFVSSPRL,0.157 ± 1
14,MCRFVLSASCFMYIEHRYGR,0.734 ± 0.81
15,MCRRANGRVLGP,5.562 ± 0.042
16,MCTSGGISG,0.346 ± 0.5
17,MDFYYLGSVCHVDLLAQYLV,inactive
18,MDPSICSDSLRFGLYWISRR,3.93 ± 0.12
19,MDVES,-0.192 ± 0.45
20,MERDCVRVDLFRVSRGGWML,5.863 ± 0.052
21,MEYPRLRSHNTAIFTLFQRP,5.38 ± 0.055
22,MEYRGQVQGCSYPWVYRLGW,-0.078 ± 0.54
23,MFAGLIVLCLVWVYRRC,4.89 ± 0.061
24,MFCIWRE,0.907 ± 0.2
25,MFFSFNVFDFGPL,4.698 ± 0.036
26,MFIWPCYFHNIRVGQLFGFG,0.091 ± 0.63

row,Substance,amyloid nucleation score
1,MFLVSFRCVSYSAWYLTYMQ,-0.338 ± 0.63
2,MFSFCRGSANSRLAQKDIVN,0.023 ± 0.3
3,MGAAITSGEGYDLRLLIDNS,0.208 ± 1.1
4,MGRLNVYLNVRLISKVIGIQ,3.63 ± 0.053
5,MGTPTTEIGALTMGSEPFV,1.24 ± 0.39
6,MHCIFSNLV,inactive
7,MHCSESSYYFAILRARHVLL,1.43 ± 0.12
8,MHMAYSLNMSHSHIRAKAGM,1.06 ± 0.27
9,MHMLWETTRWASWCGYLCMG,4.93 ± 0.059
10,MHSFLFLVIAM,inactive
11,MHWFPPYDWK,0.266 ± 1
12,MICDLMAVVNVQSKWRYSDK,5.052 ± 0.038
13,MIGGDGPRDV,0.745 ± 0.38
14,MILHCGASKGIPFLFGKDFL,-0.208 ± 0.16
15,MISRSFPQSVFFLTDLWS,-0.667 ± 0.31
16,MITVFGLVTFVVIVSTESPI,3.8 ± 0.075
17,MIVLKRSPSLCSIS,-0.007 ± 0.34
18,MIWTKRLDDHELCLGSRSML,-0.739 ± 0.79
19,MKGAKGDNFCIMV,inactive
20,MKLFISNHTLWSIGKGDGVT,inactive
21,MKLNVWGFFDGKQRLMESAA,-1.2 ± 1.1
22,MKMEY,0.31 ± 0.42
23,MKNFNVYSTYWLCMGEYGCL,6.34 ± 0.078
24,MKPSGFRGILGTELRMKGWT,0.74 ± 0.57
25,MKVVNCGCKHIFLRHCYALR,-0.605 ± 0.45
26,MLAWWPFRKWRVLIRGSRGF,1.5 ± 0.35

row,Substance,amyloid nucleation score
1,MLCKRPWVTLFRLSKCFTSD,0.33 ± 0.56
2,MLCVIHE,0.675 ± 0.25
3,MLDMVIYCISLYCSYTLRMR,1.42 ± 0.58
4,MLESWFMY,-0.154 ± 0.49
5,MLFAVDLVYGPDPLVNELTW,1.03 ± 0.4
6,MLIQVCALEGRYEVTQCVGG,1.82 ± 0.12
7,MLLLGTTSQDHHMTLGKYAG,0.808 ± 0.74
8,MLLLVNSRLWLASIPIKYRA,-0.332 ± 0.44
9,MLNSMVGQNFVGYNHALFFH,4.16 ± 0.089
10,MLNYAYSL,1.42 ± 0.32
11,MLQPPPNESVSIILLKGSPA,5.165 ± 0.042
12,MLRQYCASFALVRCLNVTDR,3.12 ± 0.13
13,MLTFSTNDFVRFVMHVAQWD,2.1 ± 0.22
14,MLTTMCDELQLLVGPLGDRV,0.253 ± 0.3
15,MLYVAVTS,0.459 ± 0.25
16,MMARFCVAFQHVIESNLGGS,-1.4 ± 0.44
17,MMDFYRLDLDRTVVVRNRYL,0.389 ± 0.74
18,MMHELHPRIELCG,6.12 ± 0.062
19,MMSGCGFSLKACLKEWRGGL,7.572 ± 0.036
20,MMSLPTLQSW,inactive
21,MNIDLHTHPSRSKMLCTTAN,0.914 ± 0.55
22,MNKCIWGIYYR,-1.6 ± 1.1
23,MNMRAGTEL,0.479 ± 0.54
